Test results from the supplement of paper PMC7125110.
± gives the standard error. For part of these data: This sample holds only a part of the variants without activity.

B1: glmS ribozyme (parent)
chain: AUAAAAGCGCCAGAACUACAGAAAUGUAGUUGACGAGGAGGAGGUUUAUCGAAUUUUCGGCGGAUGCCUCCAAA

What was measured:
Settings in all cases: with glucosamine-6-phosphate
glucosamine-6-phosphate [1] = variants of: B1; experiment: kcat; higher = faster cleavage; RNA array
Summary of the method: (§1)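 Glucosamine-6-phosphate, from 40 μM to 10 mM in HEPES/KCl/Mg(OAc)2 buffer, was flowed over sequenced MiSeq chips carrying barcoded ribozyme variants transcribed in situ by E. coli RNA polymerase. A hybridised Cy3 probe tracked the variants at 37 °C as tiles were imaged over ~14 h. kobs, kcat and KM were obtained by fitting normalised per-tile medians to exponential decays and then applying weighted Michaelis–Menten fits across concentrations.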

glucosamine-6-phosphate [2] = variants of: B1; experiment: self-cleavage kobs at 40 uM GlcN6P; higher = faster cleavage; RNA array
Summary of the method: as §1

glucosamine-6-phosphate [3] = variants of: B1; experiment: self-cleavage kobs at 10000 uM GlcN6P; higher = faster cleavage; RNA array
Summary of the method: as §1

glucosamine-6-phosphate [4] = variants of: B1; experiment: KM; higher = weaker cofactor use; RNA array
Summary of the method: as §1

glucosamine-6-phosphate [5] = variants of: B1; experiment: self-cleavage kobs at 160 uM GlcN6P; higher = faster cleavage; RNA array
Summary of the method: as §1

glucosamine-6-phosphate [6] = variants of: B1; experiment: self-cleavage kobs at 640 uM GlcN6P; higher = faster cleavage; RNA array
Summary of the method: as §1

glucosamine-6-phosphate [7] = variants of: B1; experiment: self-cleavage kobs at 2500 uM GlcN6P; higher = faster cleavage; RNA array
Summary of the method: as §1

Variant | kcat (glucosamine-6-phosphate [1]) | self-cleavage kobs at 40 uM GlcN6P (glucosamine-6-phosphate [2]) | self-cleavage kobs at 10000 uM GlcN6P (glucosamine-6-phosphate [3]) | KM (glucosamine-6-phosphate [4]) | self-cleavage kobs at 160 uM GlcN6P (glucosamine-6-phosphate [5]) | self-cleavage kobs at 640 uM GlcN6P (glucosamine-6-phosphate [6]) | self-cleavage kobs at 2500 uM GlcN6P (glucosamine-6-phosphate [7])
G32C G37C | < 1e-05 s⁻¹ | < 1e-05 s⁻¹ | < 1e-05 s⁻¹ |  |  |  | 
A53C U65A | 0.000359 ± 3.3e-05 s⁻¹ |  | 0.000294 ± 3.7e-05 s⁻¹ | 1720 ± 320 µM | 3.15e-05 ± 1e-05 s⁻¹ | 9.23e-05 ± 1.4e-05 s⁻¹ | 0.00025 ± 3.8e-05 s⁻¹
A14U U55G | 0.00848 ± 0.0029 s⁻¹ | 0.000209 ± 3.1e-05 s⁻¹ | 0.0105 ± 0.0021 s⁻¹ | 2280 ± 1100 µM | 0.000508 ± 8e-05 s⁻¹ | 0.00176 ± 0.00023 s⁻¹ | 0.0041 ± 0.00047 s⁻¹
C10U A53U G59C C68G | < 1e-05 s⁻¹ | < 1e-05 s⁻¹ |  |  |  |  | 
A14G U56C | 0.021 ± 0.0052 s⁻¹ | 0.000291 ± 4.2e-05 s⁻¹ | 0.0157 ± 0.0028 s⁻¹ | 3490 ± 1200 µM | 0.000647 ± 0.00018 s⁻¹ | 0.0033 ± 0.00071 s⁻¹ | 0.0088 ± 0.0011 s⁻¹
A48C U55C | 0.000419 ± 0.00015 s⁻¹ |  | 0.00029 ± 4.9e-05 s⁻¹ |  |  | 6.73e-05 ± 1.2e-05 s⁻¹ | 0.000327 ± 4.9e-05 s⁻¹
U57A C68U | 0.00017 ± 1.9e-05 s⁻¹ |  | 0.000143 ± 2.2e-05 s⁻¹ | 2500 ± 560 µM |  | 3.78e-05 ± 8.1e-06 s⁻¹ | 7.94e-05 ± 1e-05 s⁻¹
G40C A42G | 0.00319 ± 0.00048 s⁻¹ | 0.000131 ± 2.4e-05 s⁻¹ | 0.00299 ± 0.00053 s⁻¹ | 1060 ± 250 µM | 0.000438 ± 0.00016 s⁻¹ | 0.000898 ± 0.00025 s⁻¹ | 0.0025 ± 0.0006 s⁻¹
A53G U55A | 0.0853 ± 0.029 s⁻¹ | 0.00112 ± 0.00013 s⁻¹ | 0.065 ± 0.014 s⁻¹ | 3480 ± 1400 µM | 0.00332 ± 0.00069 s⁻¹ | 0.0112 ± 0.002 s⁻¹ | 0.0611 ± 0.023 s⁻¹
C10G C50A C71U | 1.87e-05 ± 3.4e-06 s⁻¹ |  | < 1e-05 s⁻¹ |  |  |  | 
C50U G59U | < 1e-05 s⁻¹ | < 1e-05 s⁻¹ | < 1e-05 s⁻¹ | 71.2 ± 32 µM |  | < 1e-05 s⁻¹ | 
A6C A53G | 0.000117 ± 1e-05 s⁻¹ |  | 8.97e-05 ± 7.3e-06 s⁻¹ | 3110 ± 770 µM |  | 3.04e-05 ± 1.3e-05 s⁻¹ | 4.95e-05 ± 7.6e-06 s⁻¹
C50A G66C | 1.65e-05 ± 3e-06 s⁻¹ |  |  |  |  |  | 
G43U U54A U55A C67G C68U | 0.000164 ± 6.5e-05 s⁻¹ |  | 7.92e-05 ± 2.1e-05 s⁻¹ |  |  |  | 
U31A G66U | 0.000713 ± 5.1e-05 s⁻¹ | 2.99e-05 ± 1.3e-05 s⁻¹ | 0.000631 ± 7.6e-05 s⁻¹ | 1380 ± 190 µM | 7.61e-05 ± 1.5e-05 s⁻¹ | 0.000206 ± 3.9e-05 s⁻¹ | 0.000466 ± 7.9e-05 s⁻¹
G37U G38C | < 1e-05 s⁻¹ | < 1e-05 s⁻¹ |  |  | < 1e-05 s⁻¹ |  | < 1e-05 s⁻¹
C71G | 0.0034 ± 0.00063 s⁻¹ | 0.000157 ± 1.8e-05 s⁻¹ | 0.00313 ± 0.00019 s⁻¹ | 1460 ± 470 µM | 0.00041 ± 3.6e-05 s⁻¹ | 0.000926 ± 4.6e-05 s⁻¹ | 0.00218 ± 0.00013 s⁻¹

Variant | kcat (glucosamine-6-phosphate [1]) | self-cleavage kobs at 40 uM GlcN6P (glucosamine-6-phosphate [2]) | self-cleavage kobs at 10000 uM GlcN6P (glucosamine-6-phosphate [3]) | KM (glucosamine-6-phosphate [4]) | self-cleavage kobs at 160 uM GlcN6P (glucosamine-6-phosphate [5]) | self-cleavage kobs at 640 uM GlcN6P (glucosamine-6-phosphate [6]) | self-cleavage kobs at 2500 uM GlcN6P (glucosamine-6-phosphate [7])
C61A U65A | < 1e-05 s⁻¹ |  |  |  |  |  | < 1e-05 s⁻¹
C10A U47A U57A C70U | 3.44e-05 ± 1.3e-05 s⁻¹ |  |  |  |  |  | 
A6G A39U | 0.000276 ± 7.5e-06 s⁻¹ |  | 0.000239 ± 3.2e-05 s⁻¹ | 1490 ± 84 µM | 2.95e-05 ± 1.1e-05 s⁻¹ | 8.14e-05 ± 1.2e-05 s⁻¹ | 0.000176 ± 2.3e-05 s⁻¹
C16U C50A | 2.89e-05 ± 7.6e-06 s⁻¹ |  | 2.32e-05 ± 1.1e-05 s⁻¹ |  |  |  | 4.91e-05 ± 1.8e-05 s⁻¹
C16A G66U | 0.000122 ± 3.2e-05 s⁻¹ |  | 6.63e-05 ± 1.5e-05 s⁻¹ | 8450 ± 4000 µM |  |  | 2.61e-05 ± 1.2e-05 s⁻¹
G37A G38C C67U C68G C71U | 2.2e-05 ± 4e-06 s⁻¹ |  |  |  |  |  | 
G38A C61A | < 1e-05 s⁻¹ |  |  |  |  |  | 
G35A C50G | 0.000781 ± 0.00018 s⁻¹ |  |  | 1190 ± 540 µM |  | 0.000273 ± 0.00012 s⁻¹ | 0.000615 ± 0.00015 s⁻¹
A14U G59U | < 1e-05 s⁻¹ |  |  |  | < 1e-05 s⁻¹ |  | < 1e-05 s⁻¹
C11U A53U U54C C58A | 1.72e-05 ± 2.3e-06 s⁻¹ |  |  |  |  | < 1e-05 s⁻¹ | 
G40A C68U | 5.12e-05 ± 6.5e-06 s⁻¹ | < 1e-05 s⁻¹ | 4.59e-05 ± 5.4e-06 s⁻¹ |  |  |  | 4.58e-05 ± 1e-05 s⁻¹
U45G C71U | 0.00857 ± 0.0011 s⁻¹ | 0.000147 ± 1.7e-05 s⁻¹ | 0.00653 ± 0.0008 s⁻¹ | 2380 ± 450 µM | 0.000517 ± 8.8e-05 s⁻¹ | 0.00152 ± 0.00031 s⁻¹ | 0.00519 ± 0.00062 s⁻¹
A15C A53G | 0.0101 ± 0.0037 s⁻¹ | 0.000195 ± 2e-05 s⁻¹ | 0.00839 ± 0.00094 s⁻¹ | 3060 ± 1500 µM | 0.000515 ± 8.7e-05 s⁻¹ | 0.00139 ± 0.00015 s⁻¹ | 0.00454 ± 0.00066 s⁻¹
A48U A64G | 0.00341 ± 0.00044 s⁻¹ | 2.41e-05 ± 7.5e-06 s⁻¹ | 0.00214 ± 0.00022 s⁻¹ | 5500 ± 1100 µM | 8.32e-05 ± 1.7e-05 s⁻¹ | 0.000385 ± 7.8e-05 s⁻¹ | 0.0012 ± 0.00016 s⁻¹
U46C A53U | 0.00168 ± 0.00018 s⁻¹ | 3.88e-05 ± 1.2e-05 s⁻¹ | 0.00133 ± 0.00028 s⁻¹ | 1640 ± 260 µM | 0.000145 ± 3.3e-05 s⁻¹ | 0.000471 ± 9.9e-05 s⁻¹ | 0.0012 ± 0.00023 s⁻¹
U46C A53G | 0.00366 ± 0.0005 s⁻¹ | 8.69e-05 ± 1.5e-05 s⁻¹ | 0.00272 ± 0.00067 s⁻¹ | 1430 ± 280 µM | 0.000402 ± 6.7e-05 s⁻¹ | 0.00119 ± 0.00015 s⁻¹ | 0.0025 ± 0.00035 s⁻¹
